Patent publication US20250340662A1 (AKIRAM THERAPEUTICS, published 2025)

Assays:
[1] = biological target: T1, Human CD44 iso6-Fc (human, UniProt P16070-6 21-606, limits assumed, chemically biotinylated in the form called Bio-CD44); test: SPR SCK, antibody immobilised, CD44-Fc injected
T1 construct: Negative control antigen, ProMab, HKB11 cells; also called Bio-CD44; bio-CD44
Protocol: (§1) The SPR measurements were performed on a BIAcore T200 instrument (Cytiva) using a SCK approach. Each antibody was directly immobilized onto a separate surface of a CM5 series S sensor chip using EDC/NHS amine coupling chemistry according to manufacturer's recommendations. Immobilization levels were set to 1500 RU. All experiments were performed at 25° C. in running buffer (HBS, 0.05% Tween20, pH 7.5). A three-fold dilution series of CD44v6 and negative control CD44, comprised of five concentrations ranging between 10-0.12 nM, were prepared in running buffer. A four-fold dilution series of human, cynomolgus and rabbit v6-peptide, respectively, comprised of five concentrations ranging between 100-0.39 nM, were also prepared in running buffer. Each dilution series were sequentially injected, starting with the lowest concentration first, over an immobilized antibody clone and chip surfaces were regenerated with 10 mM glycin-HCl, pH 2.1. See table 10 for specifications of antigens used in SPR measurements. By subtracting the response curve of a reference surface (an activated and deactivated chip surface) and to a blank run (running buffer injected instead of antigen) response curve sensorgrams were obtained. Data was analyzed using the Biacore T200 Evaluation 3.1 software and a 1:1 Langmuir binding model.

[2] = biological target: T2, Human v6-peptide (human, N-terminal biotin); test: SPR SCK, antibody immobilised, peptide injected
T2 construct: Bachem #4108947, 43 amino acids, synthetic; also called Hm v6-peptide; hm v6-peptide
T2 peptide: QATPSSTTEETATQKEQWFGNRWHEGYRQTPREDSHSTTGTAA
Protocol: as §1

[3] = biological target: T3, Cynomolgus v6-peptide (cynomolgus, UniProt A0A2K5VJE0 387-429, N-terminal biotin); test: SPR SCK, antibody immobilised, peptide injected
T3 construct: domain: v6-region (43 amino acids); also called Cm v6-peptide; cm v6-peptide
T3 peptide: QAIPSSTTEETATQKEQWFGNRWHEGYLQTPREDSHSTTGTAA
Protocol: as §1

[4] = biological target: T4, Rabbit v6-peptide (rabbit); test: SPR SCK, antibody immobilised, peptide injected
T4 construct: domain: v6-region (43 amino acids); also called Rb v6-peptide; rb v6-peptide
Protocol: as §1

[5] = biological target: T5, Human CD44v6 iso4-Fc (human, UniProt P16070-4 21-606, limits assumed, chemically biotinylated in the form called Bio-CD44v6); test: SPR SCK, antibody immobilised, CD44v6-Fc injected
T5 construct: Custom ordered from ProMab, produced in HKB11 cells; The biotinylated and the plain form are kept as one molecule; also called Bio-CD44v6; bio-CD44v6
Protocol: as §1

[6] = biological target: T5, Human CD44v6 iso4-Fc; test: SPR SCK, antibody immobilised, CD44v6-Fc injected; apparent KD
Protocol: as §1

[7] = biological target: T2, Human v6-peptide; test: SPR SCK, biotin-peptide on SA chip, antibody injected
Protocol: (§2) For kinetic measurements of human v6-peptide, a streptavidin (SA) sensor chip was used to immobilize the v6-peptide at approximately 20 RU. A five-fold dilution series of each antibody, consisting of five concentrations ranging between 50 nM-0.08 nM, were prepared in running buffer and sequentially injected over the chip surfaces.
(§3) All experiments were performed at 25° C. in running buffer (HBS supplemented with 0.05% Tween20, pH 7.5) and the chip surfaces were regenerated with 10 mM glycine-HCl, pH 2.1. By subtracting the response curve of a reference surface (an α-human Kappa antibody immobilized surface or a streptavidin immobilized surface) and to a blank run (running buffer injected instead of antigen or antibody) response curve sensorgrams were obtained. Data was analyzed using the Biacore T200 Evaluation 3.1 software and a 1:1 Langmuir binding model.

[8] = biological target: T5, Human CD44v6 iso4-Fc; test: SPR SCK, antibody captured via anti-kappa, CD44v6-Fc injected
Protocol: (§4) Kinetic measurements were performed on a BIAcore T200 instrument (Cytiva) using a SCK approach. An α-human Kappa antibody (GE Healthcare #28958325), functioning as a capture ligand, was immobilized onto all four surfaces of a CM5-S amine sensor chip according to manufacturer's recommendations. Antibodies were injected and captured at equal response units (RU). A four-fold dilution series of CD44v6, consisting of five concentrations ranging between 80 nM-0.3 nM, were prepared in running buffer and sequentially injected over the chip surfaces. Single injections of 100 nM CD44 (negative control) was also performed.
as §3

[9] = biological target: T2, Human v6-peptide; test: SPR SCK, biotin-peptide on SA chip, antibody injected; apparent KD
Protocol: as §2, §3

[10] = biological target: T5, Human CD44v6 iso4-Fc; test: SPR SCK, antibody captured via anti-kappa, CD44v6-Fc injected; apparent KD
Protocol: as §4, §3

T1 sequence (P16070 other isoform, or with tags, fused parts or gaps limits assumed): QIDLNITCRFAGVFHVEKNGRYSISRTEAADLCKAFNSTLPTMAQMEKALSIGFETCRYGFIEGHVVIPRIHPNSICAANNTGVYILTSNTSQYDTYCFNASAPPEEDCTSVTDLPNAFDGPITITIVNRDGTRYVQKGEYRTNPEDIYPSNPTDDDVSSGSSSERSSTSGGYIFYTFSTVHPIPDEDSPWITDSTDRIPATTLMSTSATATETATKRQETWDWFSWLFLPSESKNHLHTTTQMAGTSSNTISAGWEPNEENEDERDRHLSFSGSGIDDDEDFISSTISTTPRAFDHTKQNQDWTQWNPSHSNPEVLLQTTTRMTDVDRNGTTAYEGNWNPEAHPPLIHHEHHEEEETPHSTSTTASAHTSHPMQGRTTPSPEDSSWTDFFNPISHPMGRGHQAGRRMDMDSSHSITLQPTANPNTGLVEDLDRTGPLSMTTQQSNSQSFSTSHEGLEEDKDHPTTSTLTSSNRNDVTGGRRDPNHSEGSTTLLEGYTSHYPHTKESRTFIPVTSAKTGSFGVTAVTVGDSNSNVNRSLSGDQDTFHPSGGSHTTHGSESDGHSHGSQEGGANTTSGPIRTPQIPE
T5 sequence (P16070 other isoform, or with tags, fused parts or gaps limits assumed): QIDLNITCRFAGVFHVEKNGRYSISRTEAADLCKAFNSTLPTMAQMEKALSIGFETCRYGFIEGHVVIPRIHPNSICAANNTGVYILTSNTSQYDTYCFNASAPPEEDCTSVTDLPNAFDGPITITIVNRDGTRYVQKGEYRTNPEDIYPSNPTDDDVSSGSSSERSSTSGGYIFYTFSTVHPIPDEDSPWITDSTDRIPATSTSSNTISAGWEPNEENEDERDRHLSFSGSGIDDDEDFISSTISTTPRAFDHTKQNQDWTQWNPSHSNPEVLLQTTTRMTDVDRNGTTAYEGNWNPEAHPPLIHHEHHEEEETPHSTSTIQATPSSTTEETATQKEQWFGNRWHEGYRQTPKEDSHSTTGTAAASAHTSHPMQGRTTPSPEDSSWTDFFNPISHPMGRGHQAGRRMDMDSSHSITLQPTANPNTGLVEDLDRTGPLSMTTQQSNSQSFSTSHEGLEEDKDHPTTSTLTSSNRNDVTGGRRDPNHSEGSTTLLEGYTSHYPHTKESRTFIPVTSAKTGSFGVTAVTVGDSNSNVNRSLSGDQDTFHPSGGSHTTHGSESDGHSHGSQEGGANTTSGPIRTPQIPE

Kd [2] | koff [2] | kon [2] | Kd [3] | koff [3] | kon [3] | Kd [4] | koff [4] | kon [4] | koff [5] | kon [5] | Kd [6] | koff [7] | kon [7] | koff [8] | kon [8] | Kd [9] | Kd [10] | Binder | binding result [1]
14 nM | 0.0093 s⁻¹ | 680000 M⁻¹ s⁻¹ | 13 nM | 0.0085 s⁻¹ | 680000 M⁻¹ s⁻¹ | 19 nM | 0.015 s⁻¹ | 830000 M⁻¹ s⁻¹ | 0.00027 s⁻¹ | 170000 M⁻¹ s⁻¹ | 1.6 nM |  |  |  |  |  |  | AL-MN114-465 IgG1 LALA IAHA (antibody, V domains shown, Human IgG1 LALA IAHA, kappa) VH: EVQLLESGGGLVQPGGSLRLSCAASGFSFGSYAMSWVRQAPGKGLEWVSAISAGGSSTFYADSVKGRFTISRDNSKNTLYLQMNSLRAEDTAVYYCARHYYSDSDYRSSAAMDYWGQGTLVTVSS VL: DIQMTQSPSSLSASVGDRVTITCRASQSISSYLNWYQQKPGKAPKLLIYTASSLQSGVPSRFSGSGSGTDFTLTISSLQPEDFATYYCQQDLYLLTFGQGTKLEIK | no binding (tested: 10 nM highest CD44 concentration)
17 nM | 0.011 s⁻¹ | 620000 M⁻¹ s⁻¹ | 13 nM | 0.0095 s⁻¹ | 710000 M⁻¹ s⁻¹ | 22 nM | 0.016 s⁻¹ | 710000 M⁻¹ s⁻¹ | 0.00026 s⁻¹ | 230000 M⁻¹ s⁻¹ | 1.1 nM |  |  |  |  |  |  | AL-MN114-71 IgG1 LALA IAHA (antibody, V domains shown, Human IgG1 LALA IAHA, kappa) VH: EVQLLESGGGLVQPGGSLRLSCAASGFSFRSFAMSWVRQAPGKGLEWVSAISGGGSSTFYADSVKGRFTISRDNSKNTLYLQMNSLRAEDTAVYYCARHYYSDSDYRSSAAMDYWGQGTLVTVSS VL: DIQMTQSPSSLSASVGDRVTITCRASQSISSYLNWYQQKPGKAPKLLIYAASTLQSGVPSRFSGSGSGTDFTLTISSLQPEDFATYYCQQDLYLLTFGQGTKLEIK | no binding (tested: 10 nM highest CD44 concentration)
12 nM | 0.0083 s⁻¹ | 710000 M⁻¹ s⁻¹ | 11 nM | 0.0079 s⁻¹ | 720000 M⁻¹ s⁻¹ | 15 nM | 0.012 s⁻¹ | 820000 M⁻¹ s⁻¹ | 0.00032 s⁻¹ | 320000 M⁻¹ s⁻¹ | 1 nM |  |  |  |  |  |  | AL-MN114-444 IgG1 LALA IAHA (antibody, V domains shown, Human IgG1 LALA IAHA, kappa) VH: EVQLLESGGGLVQPGGSLRLSCAASGFTFRSFAMSWVRQAPGKGLEWVSAISGGGSSTFYADSVKGRFTISRDNSKNTLYLQMNSLRAEDTAVYYCARHYYSDSDYRSSAAMDYWGQGTLVTVSS VL: DIQMTQSPSSLSASVGDRVTITCRASQSIGSYLNWYQQKPGKAPKLLIYSASSLQSGVPSRFSGSGSGTDFTLTISSLQPEDFATYYCQQDLYLLTFGQGTKLEIK | no binding (tested: 10 nM highest CD44 concentration)

The next lines start with the binder.

Binder | Kd [2] | koff [2] | kon [2] | Kd [3] | koff [3] | kon [3] | Kd [4] | koff [4] | kon [4] | koff [5] | kon [5] | Kd [6] | koff [7] | kon [7] | koff [8] | kon [8] | Kd [9] | Kd [10] | binding result [1]
AL-MN114-132 IgG1 LALA (antibody, V domains shown, item 20 iii) gives heavy 77 / light 96 without naming the format) VH: EVQLLESGGGLVQPGGSLRLSCAASGFTFSSYAMSWVRQAPGKGLEWVSAISGGGSSTYYADSVKGRFTISRDNSKNTLYLQMNSLRAEDTAVYYCARHYYSDSDYRSSAAMDYWGQGTLVTVSS VL: DIQMTQSPSSLSASVGDRVTITCRASQSISSYLNWYQQKPGKAPKLLIYAASSLQSGVPSRFSGSGSGTDFTLTISSLQPEDFATYYCQQDLYLLTFGQGTKLEIK | 12 nM | 0.013 s⁻¹ | 1.1e+06 M⁻¹ s⁻¹ | 7.3 nM | 0.0096 s⁻¹ | 1.3e+06 M⁻¹ s⁻¹ | 13 nM | 0.023 s⁻¹ | 1.7e+06 M⁻¹ s⁻¹ | 0.00012 s⁻¹ | 1.9e+06 M⁻¹ s⁻¹ | 0.062 nM |  |  |  |  |  |  | no binding (tested: 10 nM highest CD44 concentration)
AL-MN114-132 IgG1 LALA IAHA (antibody, V domains shown, Human IgG1 LALA IAHA, kappa) VH: EVQLLESGGGLVQPGGSLRLSCAASGFTFSSYAMSWVRQAPGKGLEWVSAISGGGSSTYYADSVKGRFTISRDNSKNTLYLQMNSLRAEDTAVYYCARHYYSDSDYRSSAAMDYWGQGTLVTVSS VL: DIQMTQSPSSLSASVGDRVTITCRASQSISSYLNWYQQKPGKAPKLLIYAASSLQSGVPSRFSGSGSGTDFTLTISSLQPEDFATYYCQQDLYLLTFGQGTKLEIK | 22 nM | 0.016 s⁻¹ | 730000 M⁻¹ s⁻¹ | 17 nM | 0.014 s⁻¹ | 860000 M⁻¹ s⁻¹ | 37 nM | 0.037 s⁻¹ | 990000 M⁻¹ s⁻¹ | 0.00021 s⁻¹ | 140000 M⁻¹ s⁻¹ | 1.5 nM |  |  |  |  |  |  | no binding (tested: 10 nM highest CD44 concentration)
U-MN114-19 IgG4 S228P (antibody, V domains shown, Human IgG4 S228P (EU), kappa; also called MN19; parental clone) VH: not shown VL: DIQMTQSPSSLSASVGDRVTITCRASQSISSYLNWYQQKPGKAPKLLIYAASSLQSGVPSRFSGSGSGTDFTLTISSLQPEDFATYYCQQDLYLLTFGQGTKLEIK |  |  |  |  |  |  |  |  |  |  |  |  | 0.00018 s⁻¹ | 730000 M⁻¹ s⁻¹ | 0.001 s⁻¹ | 320000 M⁻¹ s⁻¹ | 0.28 nM | 3.3 nM | 
U-MN114-19 IgG1 LALA IAHA (antibody, V domains shown, also called parental clone U-MN114-19) VH: not shown VL: DIQMTQSPSSLSASVGDRVTITCRASQSISSYLNWYQQKPGKAPKLLIYAASSLQSGVPSRFSGSGSGTDFTLTISSLQPEDFATYYCQQDLYLLTFGQGTKLEIK | 17 nM | 0.019 s⁻¹ | 1.1e+06 M⁻¹ s⁻¹ | 20 nM | 0.034 s⁻¹ | 1.7e+06 M⁻¹ s⁻¹ | 31 nM | 0.067 s⁻¹ | 2.2e+06 M⁻¹ s⁻¹ | 0.00012 s⁻¹ | 2.5e+06 M⁻¹ s⁻¹ | 0.05 nM |  |  |  |  |  |  | no binding (tested: 10 nM highest CD44 concentration)
U-MN114-19 IgG1 LALA (antibody, V domains shown, item 20 xxi) gives heavy 149 / light 150 without naming the format; also called parental clone U-MN114-19) VH: not shown VL: DIQMTQSPSSLSASVGDRVTITCRASQSISSYLNWYQQKPGKAPKLLIYAASSLQSGVPSRFSGSGSGTDFTLTISSLQPEDFATYYCQQDLYLLTFGQGTKLEIK | 58 nM | 0.049 s⁻¹ | 830000 M⁻¹ s⁻¹ | 44 nM | 0.046 s⁻¹ | 1e+06 M⁻¹ s⁻¹ | 79 nM | 0.15 s⁻¹ | 2e+06 M⁻¹ s⁻¹ | 0.00015 s⁻¹ | 130000 M⁻¹ s⁻¹ | 1.2 nM |  |  |  |  |  |  | no binding (tested: 10 nM highest CD44 concentration)
